Blank lines part the entries; values can stand above or below the molecule they belong to.
Experiments:
[1] = target: Human CTLA4-FC recombinant protein (human); test: competition ELISA, human CTLA4-FC coated, blocked ligand CD80-FC-HIS, anti-HIS-HRP, OD450
[2] = target: monkey CTLA4 on expressing cells (monkey); test: cell ELISA on monkey CTLA4 expressing cells, goat anti-human IgG-HRP, OD450
[3] = target: T1, Human CTLA4-His recombinant protein (human, UniProt P16410 36-162); test: OCTET (BLI), antibody on protein A biosensor, CTLA4-HIS in solution
T1 construct: also called CTLA4-HIS (Sino Biological); CTLA4 recombinant protein; not shown: His tag
T1 sequence (looked up): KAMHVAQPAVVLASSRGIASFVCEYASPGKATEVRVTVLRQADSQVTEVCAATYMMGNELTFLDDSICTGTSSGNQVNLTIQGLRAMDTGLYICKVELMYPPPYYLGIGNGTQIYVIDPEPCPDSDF
Method: The affinity constant KD of the antibody to CTLA4 was determined using OCTET. Firstly, the protein A biosensor was used to immobilize the antibody to be detected, and the biosensors containing different antibodies were placed in the CTLA4-HIS diluent with the same concentration (Sino Biological) for binding for 4 min. The biosensor was then placed in the PBS for 400 s. The affinity constant KD of the antibody was analyzed by OCTET analysis software, KD is kd/ka.

IC50 [1]: 43.6 nM
Molecule: Isotype (antibody)

EC50 [2]: 799 µg/mL
Molecule: Isotype control (antibody)

Kd [3]: 13.9 nM | koff [3]: 0.000481 s⁻¹ | kon [3]: 34500 M⁻¹ s⁻¹
B1: HCA14-KH (Fc fusion)
chain 1: ESKYGPPCPPCPAPEFLGGPSVFLFPPKPKDTLMISRTPEVTCVVVDVSQEDPEVQFNWYVDGVEVHNAKTKPREEQFNSTYRVVSVLTVLHQDWLNGKEYKCKVSNKGLPSSIEKTISKAKGQPREPQVYTLPPCQEEMTKNQVSLWCLVKGFYPSDIAVEWESNGQPENNYKTTPPVLDSDGSFFLYSRLTVDKSRWQEGNVFSCSVMHEALHNHYTQKSLSLSLGK
chain 2: EVQLLESGGGLVQPGGSLRLSCAASGSIFSINHMAWYRQAPGKQRELVAGVNSRGTTNYVDSVKGRFTISRDNSKNTLYLQMNSLRAEDTAVYYCRALGGAVAAWGQGTLVTVSSGGGGSGGGGSGGGGSESKYGPPCPPCPAPEFLGGPSVFLFPPKPKDTLMISRTPEVTCVVVDVSQEDPEVQFNWYVDGVEVHNAKTKPREEQFNSTYRVVSVLTVLHQDWLNGKEYKCKVSNKGLPSSIEKTISKAKGQPREPQVCTLPPSQEEMTKNQVSLSCAVKGFYPSDIAVEWESNGQPENNYKTTPPVLDSDGSFFLVSRLTVDKSRWQEGNVFSCSVMHEALHNHYTQKSLSLSLGK
notes: also called HCA14 -KB; monovalent antibody
